Laboratory results published in publication doi:10.1101/394452 (bioRxiv, 2018).

Biological target: the molecule itself
Assay: small angle X-ray scattering

| Protein | binding result |
| --- | --- |
| phospho-mimetic tbWag31-T73E (DivIVA/Wag31 from M. tuberculosis, Rv2145c) (natural protein) MPLTPADVHNVAFSKPPIGKRGYNEDEVDAFLDLVENELTRLIEENSDLRQRINELDQELAAGGGAGVTPQAEQAIPAYEPEPGKPAPAAVSAGMNEEQALKAARVLSLAQDTADRLTNTAKAESDKMLADARANAEQILGEARHTADATVAEARQRADAMLADAQSRSEAQLRQAQEKADALQADAERKHSEIMGTINQQRAVLEGRLEQLRTFEREYRTRLKTYLESQLEELGQRGSAAPVDSNADAGGFDQFNRGKN | binds |
| phospho-ablative tbWag31-T73A (DivIVA/Wag31 from M. tuberculosis, Rv2145c) (natural protein) MPLTPADVHNVAFSKPPIGKRGYNEDEVDAFLDLVENELTRLIEENSDLRQRINELDQELAAGGGAGVTPQAAQAIPAYEPEPGKPAPAAVSAGMNEEQALKAARVLSLAQDTADRLTNTAKAESDKMLADARANAEQILGEARHTADATVAEARQRADAMLADAQSRSEAQLRQAQEKADALQADAERKHSEIMGTINQQRAVLEGRLEQLRTFEREYRTRLKTYLESQLEELGQRGSAAPVDSNADAGGFDQFNRGKN | binds |
